Consider one molecule from article PMC10045489 (Bioengineering, 2023).

For orientation: Kd means the free concentration of one partner at which half of the binding sites on the other are occupied at equilibrium, for simple one-to-one binding. Lower therefore signals a tighter complex.

The test deals with T1, full-length His-tagged SARS-CoV-2 spike protein (wild-type) (SARS-CoV-2, wild-type (Wuhan-Hu-1), UniProt P0DTC2).
T1 construct: also called full-length S-protein; full-length Spike protein; source: CHO Express cells, cell medium purified by Ni-IMAC; not shown: His-tag, C-terminal, kept
Description: BLI. The following applies: both partners purified.

B1: Nb20 nanobody (VHH)
VHH: QVQLVESGGGLVQAGGSLRLSCAVSGAGAHRVGWFRRAPGKEREFVAAIGASGGMTNYLDSVKGRFTISRDNAKNTIYLQMNSLKPQDTAVYYCAARDIETAEYIYWGQGTQVTVSS
notes: not shown: ecotin, N-terminal, cleaved; His-tag, N-terminal, cleaved
In turn, B1 had a Kd of around 1 nM.
